Test results from patent US20240091164.

Molecular target: fluorescein isothiocyanate-tagged BSA (FITC-BSA) (UniProt P02769)
Sequence (P02769 25-607): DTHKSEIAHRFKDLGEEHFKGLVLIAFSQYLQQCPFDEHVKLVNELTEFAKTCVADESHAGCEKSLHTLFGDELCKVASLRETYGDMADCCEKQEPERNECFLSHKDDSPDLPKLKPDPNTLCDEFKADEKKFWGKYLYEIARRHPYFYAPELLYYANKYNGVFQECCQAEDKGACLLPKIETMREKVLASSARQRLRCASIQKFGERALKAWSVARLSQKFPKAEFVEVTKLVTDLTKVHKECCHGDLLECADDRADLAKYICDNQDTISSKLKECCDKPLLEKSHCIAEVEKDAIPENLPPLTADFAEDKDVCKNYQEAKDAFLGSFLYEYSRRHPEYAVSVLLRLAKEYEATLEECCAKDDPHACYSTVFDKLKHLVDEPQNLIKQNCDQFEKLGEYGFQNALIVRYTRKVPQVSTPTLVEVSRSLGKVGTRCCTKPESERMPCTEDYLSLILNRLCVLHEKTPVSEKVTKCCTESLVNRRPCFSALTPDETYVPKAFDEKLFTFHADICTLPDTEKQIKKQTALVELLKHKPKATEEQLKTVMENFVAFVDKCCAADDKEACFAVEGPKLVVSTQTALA

For trypsin, the “increase in fluorescence from proteolytic cleavage of quenched FITC-BSA” value was “This assay confirmed the ability of trypsin@NP to cleave BSA”.
